Laboratory results from article PMC6052341, “Phosphorylation of FtsZ and FtsA by a DNA Damage-Responsive Ser/Thr Protein Kinase Affects Their Functional Interactions in Deinococcus radiodurans” (mSphere, 2018).

T1: P-FtsA, phosphorylated form of FtsA of Deinococcus radiodurans, purified recombinant (Deinococcus radiodurans, UniProt Q9RWN6 1-517, phosphorylated by co-expressed RqkA (checked with anti-phospho-Ser/Thr antibodies); sites reported for FtsA: threonine 272, serine 370 and serine 386)
T1 construct: FtsA, cell division protein of Deinococcus radiodurans R1; same plasmid as m3, co-expressed with the kinase RqkA; also called phosphorylated FtsA
T1 sequence (looked up): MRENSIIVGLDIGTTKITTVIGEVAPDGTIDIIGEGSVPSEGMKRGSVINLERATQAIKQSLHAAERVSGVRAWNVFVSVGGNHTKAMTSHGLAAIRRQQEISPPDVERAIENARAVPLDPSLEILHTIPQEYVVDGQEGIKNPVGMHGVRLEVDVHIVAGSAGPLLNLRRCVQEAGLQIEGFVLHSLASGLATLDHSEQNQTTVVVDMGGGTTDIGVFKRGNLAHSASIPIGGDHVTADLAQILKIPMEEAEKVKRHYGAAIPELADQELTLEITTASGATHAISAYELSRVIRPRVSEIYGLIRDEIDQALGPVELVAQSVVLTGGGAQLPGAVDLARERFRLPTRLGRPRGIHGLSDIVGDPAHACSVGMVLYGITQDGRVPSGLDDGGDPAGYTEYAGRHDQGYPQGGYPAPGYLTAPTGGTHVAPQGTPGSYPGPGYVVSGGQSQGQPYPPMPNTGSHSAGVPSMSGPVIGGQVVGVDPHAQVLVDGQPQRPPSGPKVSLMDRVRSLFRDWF

B1: FtsZ of Deinococcus radiodurans, purified recombinant (natural protein, UniProt Q9RWN5 1-371, looked up)
chain: MQAARIRVIGLGGAGNNAVNRMIESGLEGVEFIAGNTDAQVLAKSHAEVRIQLGDRLTRGLGAGADPKVGEEAAVEDRDRIKEYLDDTDMLFITAGMGGGTGTGSAPVVAEIAREMGILTVAIVTRPFKFEGPKRMRVAEEGMSKLADRVDGMIVVNNEKLLTAVDKKVSFREAFLIADRVLYYGVKGISDVINVEGMINLDFADVRNLLANSGTVLMGIGAGRGDKMAEEAAMSAIHSPLLERGIEGARRILVNVTGGYDLSMTDANEIVEKIREATGFDDPDILFGITPDEAAGDEVRVTVIATGFGDNTYAAPLGGVVSSGRGGYDQGGYGSGLVRPVRGGQGGLGGGSSYDPKDYDIPAFLRNVGGQ
notes: FtsZ, cell division protein of Deinococcus radiodurans R1; also called FZ; unphosphorylated FtsZ; source: E. coli BL21(DE3) pLysS from pFTSZ, purified (nickel-chelating Sepharose, Ni-NTA agarose)
B2: P-FtsZ, phosphorylated form of FtsZ of Deinococcus radiodurans, purified recombinant (natural protein, UniProt Q9RWN5 1-371, looked up)
chain: B1 chain
modifications: phosphorylated by co-expressed RqkA (checked with anti-phospho-Ser/Thr antibodies); sites mapped on FtsZ phosphorylated by RqkA in vitro: serine 235 and serine 335
notes: FtsZ, cell division protein of Deinococcus radiodurans R1; same plasmid as m1, co-expressed with the kinase RqkA; also called PFZ; phosphorylated FtsZ
B3: FtsA of Deinococcus radiodurans, purified recombinant (natural protein, UniProt Q9RWN6 1-517, looked up)
chain: T1 sequence (looked up)

How the values were obtained:
[1] = biological target: T1, P-FtsA, phosphorylated form of FtsA of …; assay: SPR; reverse manner: FtsZ or P-FtsZ (20 µM) immobilised on a bare gold sensor chip; FtsA or P-FtsA (4 to 20 µM) in the mobile phase; conditions: both partners purified
[2] = biological target: B3; assay: as above; conditions: both partners purified
[3] = biological target: T1, P-FtsA, phosphorylated form of FtsA of …; assay: SPR; FtsA or P-FtsA (25 µM) immobilised on a bare gold sensor chip by EDC-NHS chemistry at 20°C, about 200 response units; running buffer 20 mM Tris pH 7.6; FtsZ or P-FtsZ (6 to 30 µM) with 1 mM GTP and 1 mM MgCl2 in the mobile phase; AutoLab Esprit; conditions: both partners purified
[4] = biological target: B3; assay: as above; conditions: both partners purified
[5] = biological target: B1; assay: cell-based or functional assay

Row | Kd [1] [µM] | Kd [2] [µM] | Kd [3] [µM] | Kd [4] [µM] | stimulation of the GTPase activity of 5 µM FtsZ by 5 µM FtsA (malachite green assay; TLC of [32P]GTP to [32P]GDP) [5] [fold] | Binder
1 | 5.17 | 7.93 | 8.35 | 6.83 | – | B1
2 | 58.3 | 65.2 | 15 | 10.3 | – | B2
3 | – | – | – | – | ~1.5 | B3
